Laboratory results published in the supplement of paper PMC11246515.
± gives the standard deviation of the averaged measurements.

Test: total protein half-life in vivo (active degradation + dilution); higher = more stable protein
[1] = E. coli NCM3722 delta-clpP delta-lon delta-hslV, growth: N-lim chemostat, doubling time 6 h
[2] = E. coli NCM3722 delta-clpP, growth: N-lim chemostat, doubling time 6 h
[3] = E. coli NCM3722 delta-hslV, growth: N-lim chemostat, doubling time 6 h
[4] = E. coli NCM3722 delta-lon, growth: N-lim chemostat, doubling time 6 h
[5] = E. coli NCM3722 delta-smpB, growth: N-lim chemostat, doubling time 6 h
[6] = wild type E. coli NCM3722, growth: C-lim chemostat, doubling time 3 h
[7] = wild type E. coli NCM3722, growth: C-lim chemostat, doubling time 6 h
[8] = wild type E. coli NCM3722, growth: C-lim chemostat, doubling time 12 h
[9] = wild type E. coli NCM3722, growth: N-lim chemostat, doubling time 6 h
[10] = wild type E. coli NCM3722, growth: N-lim chemostat, doubling time 12 h
[11] = wild type E. coli NCM3722, growth: P-lim chemostat, doubling time 6 h
[12] = wild type E. coli NCM3722, growth: P-lim chemostat, doubling time 12 h

| Sequence | total protein half-life in vivo [1] | total protein half-life in vivo [2] | total protein half-life in vivo [3] | total protein half-life in vivo [4] | total protein half-life in vivo [5] | total protein half-life in vivo [6] | total protein half-life in vivo [7] | total protein half-life in vivo [8] | total protein half-life in vivo [9] | total protein half-life in vivo [10] | total protein half-life in vivo [11] | total protein half-life in vivo [12] |
| --- | --- | --- | --- | --- | --- | --- | --- | --- | --- | --- | --- | --- |
| MVTSCTGHVLDNQRATTRGVFSSGSHLVTLHFQPHPFFSCVTDAVNGARSRFSAFYPKANYGLQGSQPSDVRAHNRAANGACDEYKQLKVLSMGRQKAVIKARREAKRVLRRDSRSHKQREEESVTSLVQMGGVEAIGMARDSRDTSPILARNEAQLHYLKAIESKQLIFATGEAGCGKTWISAAKAAEALIHKDVDRIIVTRPVLQADEDLGFLPGDIAEKFAPYFRPVYDVLVRRLGASFMQYCLRPEIGKVEIAPFAYMRGRTFENAVVILDEAQNVTAAQMKMFLTRLGENVTVIVNGDITQCDLPRGVCSGLSDALERFEEDEMVGIVRFGKEDCVRSALCQRTLHAYS [P0A9K1] | 5.82 ± 0.65 h | 1.96 ± 0.059 h | 0.55 ± 0.47 h | 0.666 ± 0.43 h | 0.308 ± 0.011 h | 0.166 ± 0.058 h | 0.347 ± 0.25 h | 0.864 h | 0.735 ± 0.45 h | 0.571 h | 0.355 h | 1.23 ± 0.8 h |
| MVWIDYAIIAVIAFSSLVSLIRGFVREALSLVTWGCAFFVASHYYTYLSVWFTGFEDELVRNGIAIAVLFIATLIVGAIVNFVIGQLVEKTGLSGTDRVLGVCFGALRGVLIVAAILFFLDSFTGVSKSEDWSKSQLIPQFSFIIRCFFDYLQSSSSFLPRA | – | – | – | – | – | – | – | – | – | 7.81 h | – | – |
| MWDVIDLSRWQFALTALYHFLFVPLTLGLIFLLAIMETIYVVTGKTIYRDMTRFWGKLFGINFALGVATGLTMEFQFGTNWSFYSNYVGDIFGAPLAMEALMAFFLESTFVGLFFFGWQRLNKYQHLLVTWLVAFGSNLSALWILNANGWMQYPTGAHFDIDTLRMEMTSFSELVFNPVSQVKFVHTVMAGYVTGAMFIMAISAWYLLRGRERNVALRSFAIGSVFGTLAIIGTLQLGDSSAYEVAQVQPVKLAAMEGEWQTEPAPAPFHVVAWPEQDQERNAFALKIPALLGILATHSLDKPVPGLKNLMAETYPRLQRGRMAWLLMQEISQGNREPHVLQAFRGLEGDLGYGMLLSRYAPDMNHVTAAQYQAAMRGAIPQVAPVFWSFRIMVGCGSLLLLVMLIALVQTLRGKIDQHRWVLKMALWSLPLPWIAIEAGWFMTEFGRQPWAIQDILPTYSAHSALTTGQLAFSLIMIVGLYTLFLIAEVYLMQKYARLGPSAMQSEQPTQQQG | 3.4 h | – | 4.58 ± 0.54 h | 1.46 h | 1.93 h | – | – | – | 5.27 ± 0.94 h | 14.6 h | 0.869 h | 2.11 h |
| MWKRLLIVSAVSAAMSSMALAAPLTVGFSQVGSESGWRAAETNVAKSEAEKRGITLKIADGQQKQENQIKAVRSFVAQGVDAIFIAPVVATGWEPVLKEAKDAEIPVFLLDRSIDVKDKSLYMTTVTADNILEGKLIGDWLVKEVNGKPCNVVELQGTVGASVAIDRKKGFAEAIKNAPNIKIIRSQSGDFTRSKGKEVMESFIKAENNGKNICMVYAHNDDMVIGAIQAIKEAGLKPGKDILTGSIDGVPDIYKAMMDGEANASVELTPNMAGPAFDALEKYKKDGTMPEKLTLTKSTLYLPDTAKEELEKKKNMGY | 5.47 ± 0.2 h | 5.64 ± 0.063 h | 6.128 ± 0.015 h | 5.93 ± 0.48 h | 5.06 ± 0.13 h | 3.09 ± 0.11 h | 6.11 ± 0.068 h | 12 ± 1.7 h | 5.68 ± 1.1 h | 11.9 ± 1.6 h | 5.4 ± 0.41 h | 13.35 ± 0.018 h |
| MWQAISRLLSEQLGEGEIELRNELPGGEVHAAWHLRYAGHDFFVKCDERELLPGFTAEADQLELLSRSKTVTVPKVWAVGADRDYSFLVMDYLPPRPLDAHSAFILGQQIARLHQWSDQPQFGLDFDNALSTTPQPNTWQRRWSTFFAEQRIGWQLELAAEKGIAFGNIDAIVEHIQQRLASHQPQPSLLHGDLWSGNCALGPDGPYIFDPACYWGDRECDLAMLPLHTEQPPQIYDGYQSVSPLPADFLERQPVYQLYTLLNRARLFGGQHLVIAQQSLDRLLAA | 4.14 ± 0.66 h | 3.457 ± 0.023 h | 3.84 ± 0.5 h | 3.77 ± 0.099 h | 3.3 ± 0.13 h | 3.159 ± 0.0069 h | 5.21 ± 0.11 h | 9.56 ± 0.57 h | 3.31 ± 0.31 h | 5.08 ± 0.18 h | 5.685 ± 0.017 h | 11.2 ± 0.46 h |
| MYDFVIIGGGIIGMSTAMQLIDVYPDARIALLEKESAPACHQTGHNSGVIHAGVYYTPGSLKAQFCLAGNRATKAFCDQNGIRYDNCGKMLVATSDLEMERMRALWERTAANGIEREWLNADELREREPNITGLGGIFVPSSGIVSYRDVTAAMAKIFQSRGGEIIYNAEVSGLNEHKNGVVIRTRQGGEYEASTLISCSGLMADRLVKMLGLEPGFIICPFRGEYFRLAPEHNQIVNHLIYPIPDPAMPFLGVHLTRMIDGSVTVGPNAVLAFKREGYRKRDFSFSDTLEILGSSGIRRVLQNHLRSGLGEMKNSLCKSGYLRLVQKYCPRLSLSDLQPWPAGVRAQAVSPDGKLIDDFLFVTTPRTIHTCNAPSPAATSAIPIGAHIVSKVQTLLASQSNPGRTLRAARSVDALHAAFNQ | 5.44 ± 0.2 h | 6.32 ± 1.6 h | 5.3 ± 0.37 h | 4.94 ± 0.065 h | 4.58 ± 0.47 h | 2.7 ± 0.3 h | 5.48 ± 0.23 h | 9.35 ± 0.39 h | 5.4 ± 0.44 h | 9.37 ± 0.29 h | 4.51 ± 0.93 h | 10.8 ± 0.21 h |
| MYDYIIVGSGLFGAVCANELKKLNKKVLVIEKRNHIGGNAYTEDCEGIQIHKYGAHIFHTNDKYIWDYVNDLVEFNRFTNSPLAIYKDKLFNLPFNMNTFHQMWGVKDPQEAQNIINAQKKKYGDKVPENLEEQAISLVGEDLYQALIKGYTEKQWGRSAKELPAFIIKRIPVRFTFDNNYFSDRYQGIPVGGYTKLIEKMLEGVDVKLGIDFLKDKDSLASKAHRIIYTGPIDQYFDYRFGALEYRSLKFETERHEFPNFQGNAVINFTDANVPYTRIIEHKHFDYVETKHTVVTKEYPLEWKVGDEPYYPVNDNKNMELFKKYRELASREDKVIFGGRLAEYKYYDMHQVISAALYQVKNIMSTD | 6.0745 ± 0.0011 h | 3.11 h | – | 4.59 ± 0.33 h | 2.83 ± 0.48 h | – | – | – | 3.52 h | – | – | 11.8 h |
| MYHDVSYLLSRLINGPLSLRQIYFASSNGPVPDLAYQVDFPRLEIVLEGEFVDTGAGATLVPGDVLYVPAGGWNFPQWQAPATTFSVLFGKQQLGFSVVQWDGKQYQNLAKQHVARRGPRIGSFLLQTLNEMQMQPQEQQTARLIVASLLSHCRDLLGSQIQTASRSQALFEAIRDYIDERYASALTRESVAQAFYISPNYLSHLFQKTGAIGFNEYLNHTRLEHAKTLLKGYDLKVKEVAHACGFVDSNYFCRLFRKNTERSPSEYRRQYHSQLTEKPTTPE | 5.77 ± 0.063 h | 3.94 h | 4.1 h | 5.72 ± 1.3 h | 4.21 ± 0.49 h | 2.6 h | 6.09 ± 1.5 h | 8.5207 ± 0.0056 h | 3.8 ± 0.55 h | 6.04 h | 3.26 h | 5.79 ± 0.83 h |
